# Source: patent US20090010925 (published 2009)
# Numbering of substitutions follows the chain as printed.
# T1: VEGF(8-109) (human, UniProt P15692)
# T1 chain: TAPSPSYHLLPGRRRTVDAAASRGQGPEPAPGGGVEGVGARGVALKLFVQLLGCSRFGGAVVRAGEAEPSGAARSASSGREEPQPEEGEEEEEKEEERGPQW
# B1: Y0313-2 (antibody, V domains shown)
# VH: EVQLVESGGGLVQPGGSLRLSCAASGYDFTHYGMNWVRQAPGKGLEWVGWINTYTGEPTYAADFKRRFTFSLDTSKSTAYLQMNSLRAEDTAVYYCAKYPHYYVNERKSHWYFDVWGQGTL
# VL: DIQLTQSPSSLSASVGDRVTITCRANEQLSNYLNWYQQKPGKAPKVLIYFTSSLHSGVPSRFSGSGSGTDFTLTISSLQPEDFATYYCQQYSTVPWTFGQGTKVEIKR
# B2: Y0239-12 (antibody, V domains shown)
# VH: B1 VH with D28T, H31N, V104A, N105H, R107K
# VL: B1 VL
# B3: Y0241-7 (antibody, V domains shown)
# VH: EVQLVESGGGLVQPGGSLRLSCAASGYDWTNYGINWVRQAPGKGLEWVGWINTYTGEPTYAADFKRRFTFSLDTSKSTAYLQMNSLRAEDTAVYYCAKYPHYYGSSHWYFDVWGQGTL
# VL: B1 VL
# B4: Y0240-1 (antibody, V domains shown)
# VH: B1 VH with D28T, H31N, V104L, N105T, E106D, R107H
# VL: B1 VL
# B5: Y0242-1 (antibody, V domains shown)
# VH: B3 VH with D28T, W29F, I34M, Y54W
# VL: B1 VL
# B6: Y0241-6 (antibody, V domains shown)
# VH: B3 VH with W29Y
# VL: B1 VL
# B7: Y0239-2 (antibody, V domains shown)
# VH: B1 VH with D28T, H31N, V104K, E106D, R107K, K108S
# VL: B1 VL
# B8: Y0239-19 (antibody, V domains shown)
# VH: B1 VH with D28T, H31N
# VL: B1 VL
# B9: Y0261-6 (antibody, V domains shown)
# VH: B1 VH with D28T, H31N, V104L, N105K, E106D, R107K
# VL: B1 VL
# Target: T1, VEGF(8-109)
# Experiment: SPR, 25C
row,Kd [nM],Binder
1,0.36,B1
2,0.6,B2
3,3,B3
4,0.5,B4
5,1.8,B5
6,2.7,B6
7,4.6,B7
8,0.3,B8
9,0.6,B9
